Substrate in series [1]: CC(C)(COP(=O)(O)OP(=O)(O)OC[C@H]1O[C@@H](n2cnc3c(N)ncnc32)[C@H](O)[C@@H]1OP(=O)(O)O)[C@@H](O)C(=O)NCCC(=O)NCCS
The series can be described thus: purified protein, by the assay type. The note with it: other: thiolysis, 25° C., β-ketocaproyl-CoA fixed at 60 μM.

The next series relates to threonine deaminase. The series can be described thus: Threonine deaminase activity in extracts of transformed E. coli DH5α (in vivo analysis of cloned ilvA genes). The format is biochemical. The note with it: 0 mM isoleucine, 10 mM threonine. The source says: E. coli DH5α cells were transformed with pJM9238 (Kidwell et al., 1995) containing the PHB operon of A. eutrophus by CaCl2/heat shock treatment The PHB operon was under the inducible control of the ptac promoter. E. coli containing pJM9236 were used as a background control with respect to threonine deaminase activity.
E. coli DH5α cells were also cotransformed by CaCl2/heat shock treatment with pJM9238 and pMON25660 (FIG. 5) containing the wild-type E. coli threonine deaminase, under ptrc inducible control.
In a third experiment, E. coli DH5α cells were cotransformed with pJM9238 and pMON25683 (FIG. 11) containing the mutant E. coli ilvA466 (L481F) threonine deaminase, under ptrc inducible control.
(§1) Transformed cells were grown on M9 minimal salts plus 0.2% gluconate and 25 mM L-threonine. At early log phase, the cells were induced with IPTG to induce expression of all four enzymes (i.e., PhbA, PhbB, PhbC, and IlvA or IlvA466). […] The level of α-ketobutyrate was determined by reverse-phase HPLC isolation of the dinitrophenylhydrazine derivative of the α-ketoacid according to Qureshi et al., (1982). Quantitation was based on peak integration comparisons to a standard curve.

The next series has as its system E. coli DH5α cells. The series can be described thus: Intracellular α-ketobutyrate in transformed E. coli DH5α (HPLC of dinitrophenylhydrazine derivative). The class given is cell-based. The following applies: for [α-ketobutyrate]: 1 ml extract from approximately 50 mg cells, M9 + 0.2% gluconate + 25 mM L-threonine; for α-ketobutyrate level relative to cells containing no overexpressed threonine deaminase: transformed E. coli DH5α. How it is done:
as §1

A further series relates to soybean callus. In words: Expression and activity of E. coli IlvA in stably transformed soybean callus. The format is cell-based. The note with it: soybean calli 518-4, 518-15, 518-16, 518-17 transformed with pMON25668. The source says:
As shown above, the E. coli IlvA proteins can be functionally expressed in a plant transient expression system. In order to test the expression of a biosynthetic threonine deaminase in a stably transformed plant tissue, non-differentiating callus derived from soybean hypocotyl tissue was transformed with a plasmid containing the E. coli wild-type ilvA threonine deaminase gene using Agrobacterium tumefaciens ABI (Koncz and Schell, 1986).
Soybean callus tissue was transformed with binary Ti plasmid pMON25668 (FIG. 17). Plasmid pMON25668 contains the e35S-expressed, plastid-targeted (ARABSSU1A) E. coli wild-type ilvA threonine deaminase gene, the e35S-expressed, plastid-targeted (ARABSSU1A) A. eutrophus phbA (β-ketothiolase) gene, and the e35s-expressed neomycin phosphotransferase type II (NptII) gene for kanamycin resistance. […] contains two border sequences for T-DNA transfer into the plant chromosome. The right border sequence is the only border required for T-DNA transfer into the plant; however, including the left border sequence terminates T-DNA integration at that point, thereby limiting the unnecessary incorporation of “extra” DNA sequences into the plant chromosome. pMON25668 also contains the minimun sequence of ori-322 for replication and maintenance in E. coli as well as ori-V of the broad host origin RK2 for replication in Agrobacterium. […]

Series [2] has as its system E. coli biosynthetic threonine deaminase. The note with it: for Threonine Deaminase Specific Activity / % activity relative to the results with 0 mM isoleucine: 10 mM threonine; for Hill Coefficient (n) / Km: fit to Hill equation; for Km: read-out: Km Threonine. As for the experimental part:
Kinetic analysis of the wild-type and mutant threonine deaminases was performed by determining threonine turnover catalyzed by these threonine deaminases as assayed by the method of Burns (1971). Specifically, α-keto-butyrate production was monitored by coupling to L-lactic dehydrogenase (LDH)-catalyzed reduction of the α-ketoacid in the presence of NADH to form (L)-2-hydroxybutyrate and NAD+. The disappearance of NADH absorbance at 340 nm provides a measure of the threonine deaminase activity. Final reaction conditions were 100 mM KPi, pH 7.8, 0.20 mM NADH, 10 units/mL LDH (defined as LDH turnover of α-ketobutyrate, not pyruvate), and variable threonine. R. Rubrum was grown according to Brandl et al., 1989. The growth and induction of E. coli cells overexpressing the mutant and wild-type biosynthetic threonine deaminases is described above. Cell extracts of R. Rubrum and E. coli were prepared by sonicating pelleted cells (≈0.5 g from 100 ml of culture) in 2 ml of 100 mM KPi, pH 7.0, containing 5% (v/v) glycerol. After centrifugation to remove cellular debris, protein concentrations were determined by the method of Bradford (1976), and threonine deaminase activity was measured.
The kinetic parameters Km and Vmax, and the level of positive cooperativity, i.e., the deviation from normal saturation kinetics where at low substrate concentration the substrate turnover rate is less than a non-cooperative system, were determined. These values were found by fitting the rate data to the Hill equation (Equation 1), which incorporates the coefficient n into the normal Michaelis-Menten equation (n=1 for a non-cooperative system).
In addition to the kinetic parameters, the degree of inhibition of threonine deaminase by isoleucine was also measured at fixed levels of threonine.

Numbering of substitutions follows the chain as printed. Names and notes keep the numbering of the source. Like-named read-outs stand apart in the source and are kept apart here.

B1: BktB β-ketothiolase (Cupriavidus necator H16) (protein)
chain: TREVVVVSGVRTAIGTFGGSLKDVAPAELGALVVREALARAQVSGDDVGHVVFGNVIQTEPRDMYLGRVAAVNGGVTINAPALTVNRLCGSGLQAIVSAAQTILLGDTDVAIGGGAESMSRAPYLAPAARWGARMGDAGLVDMMLGALHDPFHRIHMGVTAENVAKEYDISRAQQDEAALESHRRASAAIKAGYFKDQIVPVVSKGRKGDVTFDTDEHVRHDATIDDMTKLRPVFVKENGTVTAGNASGLNDAAAAVVMMERAEAERRGLKPLARLVSYGHAGVDPKAMGIGPVPATKIALERAGLQVSDLDVIEANEAFAAQACAVTKALGLDPAKVNPNGSGISLGHPIGATGALITVKALHELNRVQGRYALVTMCIGGGQGIAAIFERI
Usually Km stands for the concentration of substrate that gives half-maximal velocity. For B1, the Michaelis-Menten constant (Km) in series [1] came out at 0.053 ± 0.006 mM.

B2: E. coli wild-type: wild-type E. coli biosynthetic threonine deaminase encoded by the ilvA gene (SEQ ID NO:1) (protein, listed as Escherichia coli)
chain: MADSQPLSGAPEGAEYLRAVLRAPVYEAAQVTPLQKMEKLSSRLDNVILVKREDRQPVHSFKLRGAYAMMAGLTEEQKAHGVITASAGNHAQGVAFSSARLGVKALIVMPTATADIKVDRLRGFGGEVLLHGANFDEAKRKAIELSQQQGFTWVPPFDHPMVIAGQGTLALELLQQDAHLDRVFVPVGGGGLAACVAVLIKQLMPQIKVIAVEAEDSACLKAALDAGHPVDLPRVGLFAEGVAVKRIGDETFRLCQEYLDDIITVDSDAICAAMKDLFEDVRAVAEPSGALALAGMKKYIALHNIRGERLAHILSGANVNFHGLRYVSERCELVEQREALLAVTIPEEKGSFLKFCQLLGGRSVTEFNYRFADAKNACIFVGVRLSRGLEERKEILQMLNDGGYSVVDLSDDEMAKLHVRYMVGGRPSHPLQERLYSFEFPESPGALLRFLNTLGTYWNISLFHYRSHGTDYGRVLAAFELGDHEPDFETRLNELGYDCHDETNNPAFRFFLAG
For the molecule B2, the “Threonine Deaminase Specific Activity” value in the series with threonine deaminase amounted to 4.20 u/mg; in series [2] (0 mM isoleucine) it was 16.7 u/mg; in series [2] (1.0 mM isoleucine), 0.3 u/mg; in series [2] (10.0 mM isoleucine), 0.3 u/mg. In addition, the “[α-ketobutyrate]” value in the series with E. coli DH5α cells stood at 41.8 µM. Also, in the series on E. coli DH5α cells, the “α-ketobutyrate level relative to cells containing no overexpressed threonine deaminase” value is “about a three-fold increase”. Further, the “expression (Western blot) and enzymatic activity in transformed calli” value in the series with soybean callus is “can be expressed and maintain enzymatic activity”. Also, the “% activity relative to the results with 0 mM isoleucine” value in series [2] (1.0 mM isoleucine) and in series [2] (10.0 mM isoleucine) was below 2% each time. In series [2], the “Hill Coefficient (n)” value turned out to be 1.5 ± 0.2. The Km in series [2] is 5 ± 1 mM.

B3: E. coli L481F (protein)
chain: B2 chain with R120A, L121V, R140A, C195G, V334G, L481F
B3: the “Threonine Deaminase Specific Activity” value in the series with threonine deaminase is 0.59 u/mg; in series [2] (0 mM isoleucine), 20.3 u/mg; in series [2] (1.0 mM isoleucine), 11.3 u/mg; in series [2] (10.0 mM isoleucine) it was 0.3 u/mg. Further, the “[α-ketobutyrate]” value in the series on E. coli DH5α cells is 579 µM. Also, the “α-ketobutyrate level relative to cells containing no overexpressed threonine deaminase” value with E. coli DH5α cells is reported as “greater than 40 times”. For the same molecule, the figures for the “% activity relative to the results with 0 mM isoleucine” value in series [2] (1.0 mM isoleucine) and in series [2] (10.0 mM isoleucine) were 56% and below 2%, respectively. The “Hill Coefficient (n)” value in series [2] is given as 1.22 ± 0.01. Besides, in series [2], the Km worked out at 3.08 ± 0.03 mM.

The record behind these values is US6946588B2, “Nucleic acid encoding a modified threonine deaminase and methods of use” (Monsanto Technology LLC, priority 1996, dated 2005).
